B1: MATN2 (parent)
chain: FSLKTFKRKSEVERAVKRMRHLST
B2: PTPLAD1 (parent)
chain: YSFYMLTCIDMDWKVLTWLRYTLW

Variants of: B1
Test: protein stability index of a GFP-peptide fusion (GPS, HEK-293T) (PSI 1-6); higher = more stable
Conditions: c terminus: a fixed tail appended
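Also: lentivirally expressed fusions sorted by FACS into six bins by GFP to DsRed ratio, PSI derived from sequencing read proportions per bin multiplied by bin number.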

Protein stability index: each site, then its substitutions
M19: T 2.84; V 2.21; D 2.76; E 3.34; P 2.14; Y 2.5; A 3.21; K 3.67; W 2.9; S 2.84; F 2.18; L 2.31; Q 2.57; H 2.89; C 2.61; I 4.04; R 4.54; N 2.68
K9: D 2.46; G 2.46; S 2.58; W 3.18; N 1.65; F 2.25; E 1.62; Y 2.12; R 1.84; A 1.78; Q 2.52; T 2.09; P 1.84; M 2.98; V 1.25; I 1.91; C 2.91
R14: V 2.75; K 3.11; P 2.49; N 2.46; C 1.83; G 2.15; T 2.87; M 3.08; H 2.28; W 2.25; L 1.96; S 2.49; E 2.49; D 2.73; F 2.65
V12: F 1.4; W 1.24; E 2.34; Q 3.15; T 2.38; K 3.17; R 3.19; H 2.54; L 2.56; M 2.11; G 2.91; P 2.5; C 2.25; Y 2.12; S 2.98; A 2.36; N 1.87
E11: I 1.96; Q 2.44; S 1.98; C 1.76; D 2.39; H 2.29; F 2.01; P 2.17; T 2.99; A 2.52; Y 2.09; M 2.8; G 2.46; R 3.21; K 3.17; V 2.38; L 2.56; N 2.82
T24: N 3; H 2.57; S 2.53; P 2.35; W 1.55; E 2.67; G 3.01; V 1.62; A 2.72; I 2.08; K 3.38; L 2.4; D 2.44; Q 1.55; Y 2.23
R18: C 1.8; L 1.97; I 2.16; W 2.04; M 1.93; S 2.21; T 2.26; K 1.97; D 2.8; A 1.96; F 1.54; V 2.34; P 2.36; Y 3.03; Q 1.93; G 2.8; H 2.4; N 2.52
E13: W 1.4; Y 2.94; Q 2.9; L 2.28; R 2.22; F 2.08; T 2.41; H 2.37; A 2; C 1.83; D 2.52; P 3.15; N 2.83; I 2.29; M 2.25; V 2.11; S 2.34; G 1.83; K 2.69
F6: N 2.38; Q 2.85; W 1.16; V 2.96; T 2.75; P 2.67; L 2.55; R 2.73; Y 3.29; M 2.29
K7: T 2.31; P 2.05; A 1.78; I 1.31; S 1.69; H 2.05; V 2.91; L 1.15; G 2.46; W 1.9; M 2.66; F 1.83; R 2.45; N 2.76; C 1.63; Q 1.97; Y 1.77; D 2.51
L22: Y 1.93; G 2.79; E 3.18; K 3.09; F 2.1; T 3.17; H 2.59; C 2.79; S 1.92; D 2.96; M 2.57; R 2.68; A 2.81; V 2.58; N 2.47; Q 2.62; I 2.36
H21: A 2.77; Y 2.84; R 2.41; Q 1.87; C 2.28; F 1.99; L 1.46; T 2.72; P 2.58; G 1.75; I 1.76; S 1.68; D 2.76; N 2.4; V 1.3; K 3.76; E 2.28
S10: R 2.46; A 1.72; Y 2.3; Q 2.26; N 3.07; H 2.77; K 2.21; M 1.91; G 1.99; P 2.62; E 2.42; W 2.88; D 2.05; V 3.04; F 1.77; I 1.49; L 1.39; T 2.73
R20: Y 2.32; S 2.42; V 1.6; I 2.82; L 2.81; T 2.57; A 2.14; N 2.54; H 2; D 2.54; C 2.4; P 3.21; M 2.08; K 2.59; G 2.38; W 1.24; F 1.9; Q 2.22; E 2.54
V16: W 1.76; H 2.19; I 2.07; Q 2.92; C 2.48; E 2.43; T 3.1; D 2.15; F 3.4; M 2.93; P 2.33; Y 2.1; L 1.51; S 2.57; A 2.82; G 2.71; R 2.48; N 2.47
A15: G 2.35; D 2.89; M 2.2; I 1.38; V 2.27; W 2.17; P 2.43; R 3.91; C 2.27; Q 2.58; E 2.73; K 2.7; T 2.78; N 2.81; F 2.94; H 2.87; S 2.33; Y 1.59
R8: P 2.7; G 2.43; K 2.33; V 2.15; T 2.47; F 1.43; Y 2.29; S 1.93; I 2.12; N 2.17; L 2.48; H 3.3; M 3.23; Q 2.49; D 2.85; C 2.27
K17: A 2.26; R 1.87; C 2.35; Q 2.13; D 2.92; V 2.69; F 1.75; H 3.01; N 2.5; M 2.53; P 3.24; L 1.92; Y 1.76; I 2.04; S 2.65; T 2.34; E 2.38
S23: C 1.42; T 1.89; N 2.53; G 2.1; K 2.64; V 1.28; D 3.11; P 2.25; E 2; Y 2.3; A 1.81; W 1.72; R 2.35; I 2.8

Variants of: B2
Test: as above
Conditions: c terminus: a fixed tail appended

Protein stability index, by site and new letter:
Y1: V 4.18; M 3.57; P 1.7; H 2.28; Q 3.61; D 1.5; S 2.07; N 2.57; T 2.2; C 2.62; L 1.47; A 2.82; K 2.1; R 1.4; I 3.26

From the supplement of paper PMC10567573
